To fix the notation:
B1: MBP-tagged h1NLS (MBP-h1NLS), wild type (peptide, UniProt Q03707 171-221, looked up)
chain: DTRKKRKDPDSDDWSESNSKENKIDNKHLNLLSSDSEIEQDYQKAKKRKTS
B2: MBP-h1NLS with Ala-mutation at position P2 (K190A) (peptide, UniProt Q03707 171-221, looked up)
chain: DTRKKRKDPDSDDWSESNSAENKIDNKHLNLLSSDSEIEQDYQKAKKRKTS
B3: MBP-h1NLS with Ala-mutation at position P2' (R176A) (peptide, UniProt Q03707 171-221, looked up)
chain: DTRKKAKDPDSDDWSESNSKENKIDNKHLNLLSSDSEIEQDYQKAKKRKTS
B4: MBP-h1NLS with Ala-mutations at positions P2' and P2 (R176A, K190A) (peptide, UniProt Q03707 171-221, looked up)
chain: DTRKKAKDPDSDDWSESNSAENKIDNKHLNLLSSDSEIEQDYQKAKKRKTS
B5: MBP-Nup2 (res. 1-51) (domain or fragment, S. cerevisiae, UniProt P32499 1-51, looked up)
chain: MAKRVADAQIQRETYDSNESDDDVTPSTKVASSAVMNRRKIAMPKRRMAFK

One test has as its target Kap60 lacking the IBB (ΔIBB-Kap60) (S. cerevisiae) (UniProt Q02821). Briefly: ITC.
Molecule “nucleoplasmin bipartite NLS (NP-NLS), control (peptide)” gave a Kd of 46 nM.

The next test has as its target T1, Kap60 lacking the IBB (ΔIBB-Kap60) (S. cerevisiae, UniProt Q02821 88-509).
T1 sequence: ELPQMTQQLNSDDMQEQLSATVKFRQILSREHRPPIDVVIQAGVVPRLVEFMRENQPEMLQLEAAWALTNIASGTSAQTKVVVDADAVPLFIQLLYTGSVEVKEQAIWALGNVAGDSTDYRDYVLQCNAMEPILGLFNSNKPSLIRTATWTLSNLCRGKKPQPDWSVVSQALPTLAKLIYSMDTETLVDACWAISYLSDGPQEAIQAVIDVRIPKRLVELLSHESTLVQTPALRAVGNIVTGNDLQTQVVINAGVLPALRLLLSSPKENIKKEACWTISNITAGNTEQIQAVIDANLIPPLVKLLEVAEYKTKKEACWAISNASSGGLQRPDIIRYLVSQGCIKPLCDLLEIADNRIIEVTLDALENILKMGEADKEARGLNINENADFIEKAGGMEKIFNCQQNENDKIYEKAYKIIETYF
Briefly: ITC.
B1 yielded a Kd of 30.5 ± 10 nM. The molecule B2 had a Kd of 68.6 ± 14 nM. For the molecule B3, the Kd came to 123 ± 8.6 nM.

In turn, B4 returned a Kd of 140 ± 26 nM. The molecule TNKRKREQISTDNEAKMQIQEEKSPKKKRKKRSSKANK (peptide, UniProt Q03281 100-137, looked up) [MBP-tagged h2NLS (MBP-h2NLS), wild type] gave a Kd of 27.3 ± 8 nM. The same measure, in the same setting: to TNKRKREQISTDNEAKMQIQEEKSPKAKRKKRSSKANK (peptide, UniProt Q03281 100-137, looked up) [MBP-h2NLS with Ala-mutation at position P2 (K126A)] belongs 106 ± 15 nM. For the molecule TNKAKREQISTDNEAKMQIQEEKSPKAKRKKRSSKANK (peptide, UniProt Q03281 100-137, looked up) [MBP-h2NLS with Ala-mutations at positions P2' and P2 (R103A, K126A)], the Kd was 168 ± 32 nM. TNKAKREQISTDNEAKMQIQEEKSPKKKRKKRSSKANK (peptide, UniProt Q03281 100-137, looked up) [MBP-h2NLS with Ala-mutation at position P2' (R103A)] gave a Kd of 132 ± 27 nM.

Another test deals with T1, Kap60 lacking the IBB (ΔIBB-Kap60). Briefly: pull-down.
As to B5, the “percent of the ΔIBB-Kap60:h2NLS complex dissociated at 10-fold excess of Nup2” value was 60%.

The record behind these values is article PMC4768490 (Structure (London, England : 1993), 2015).
